Measurements taken from the nanobody polyreactivity screen of Harvey et al. (2022).

Assay: yeast display, Sf9 membrane polyspecificity reagent, FACS + sequencing; frameworks hold sequencing errors
Procedure, shortened: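 Polyreactivity labels are assigned by the sorting gate from which each nanobody was recovered. The gates were low and high (top ~1%), set on anti-HA fluorescence for expression and streptavidin fluorescence for reagent binding. Before sorting, galactose-induced (36–48 hours) yeast display cells were stained for 1 hour at 4 °C with 10% biotinylated, detergent-solubilized Sf9 membrane reagent.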

| Sequence | polyreactivity (PSR sort gate) |
| --- | --- |
| QVQLVESGVGLVQAGGSLRLSCAASGFTISYYTIGWSRQAPGKDRELVAAISSTGVSTYYADSVKGRFTISRDTAKNTVYLPLNSLKPEDTSVYYCAADYYGVYEYYYWGQGTQVTVSS | high polyreactivity |
| QVQLVESGVGLVQAGGSLRLSCAASGGTFRPYAMGWYRHAPGKESELVAAISYTGSTYYADSVKGRFTISRDNAKNTVYLQMNSLKPVDTAVYYCAKDLWYPPRFDYWGQGTQVTVSS | low polyreactivity |
| QVQLVESGVGLVQAGGSLRLSCAASGIIFKVYAMGWYRQAPGKERELVAAISKSGGSTYYADSVKGRFTISRDNAKNTVYLQMNSLKPEDTAVYYCAARDYARYASYYYWGLGTQVTVSS | high polyreactivity |
| QVQLVESGVGLVQAGGSLRLSCAASGIIFYDNALGWYRQAPGKERELVAAITDSGGTTYYADSVKGRFTISRDNAKNTVYLEMNSLKPEDNAVYYCAAETTATHGFAYDYWGQGTQVTVSS | low polyreactivity |
| QVQLVESGVGLVQAGGSLRLSCAASGIIFYEYAMGWNRQAPWKERELVATITSGGSTNYADSVKGRFTISRDNAKNTVYLQMNSLKPEDTAVYYCNADWWWGYGYWGQGTQVTVSS | low polyreactivity |
| QVQLVESGVGLVQAGGSLRLSCAASGITFSYYAMGWYRQAPGKERELVAAISGSGTSTYYADSVKGRFTISRDNAKNTVYLQMNSLKPEDTAVYYCAAGPPRKPGYYYWGQGTQVTVSS | high polyreactivity |
| QVQLVESGVGLVQAGGSLRLSCAASGITFTGYAMGWYRQAPGKERELVAVISETGGSTYADSVKGRFTISRDNAKNTVYLQMNSLKPEDTAVYYCATRLWWPYSTAWAKMDYWGQGTQVTVSS | low polyreactivity |
| QVQLVESGVGLVQAGGSLRLSCAASGNIFWWNAMGWYRQAPGKERELVAAITSDSTTYYADSVKGRFTISRDNAKKTVYFQMNSLKPEDTAVYYCAAYSYGGQGVDYGYWGQGTQVNVSS | low polyreactivity |
| QVQLVESGVGLVQAGGSLRLSCAASGNIITTYAMGWYRQAPGKERELVAAISRTGGRTSYADSVKGRFTISRDNAKNTVYLQMNSLKPEDTAVYYCAAVQTVRQSAPRARILSDYWGQGTQVTVSS | high polyreactivity |
| QVQLVESGVGLVQAGGSLRLSCAASGNILGYNAIGWYRQAPGKETELVAAISWIGGSTYYADSVKGRFTISRDNAKNTVYLQMNSLKPEDTAVYYCAARYRTYFTYEYWGQGTQVTVSS | low polyreactivity |
| QVQLVESGVGLVQAGGSLRLSCAASGRIFHINAMGWYRQAPGKERELVATISGTDRTTYADSVKGRFTISRDNAKNTVYLQMNSLKPEDTAVYYCAAPTDFLFWEFDYWGQGTQVTVSS | low polyreactivity |
| QVQLVESGVGLVQAGGSLRLSCAASGRIFIKYAMGWYRQAPGKEREFVAAISGRGGSTYYADSVKGRFTISRDNAKNTVYLQMNSLKPEDTAVYYCAKRFFSSGTAAGMYYWGQGTQVTVSS | high polyreactivity |
| QVQLVESGVGLVQAGGSLRLSCAASGRIFRTYAMGWYRQAPGKERELVAAITSGGGSTYYADSVKGRFTISRDNAKNTVYLQMNSLKPEDTAVYYCAARPGIRSYPPGYGYWGQGTQVTVSS | high polyreactivity |
| QVQLVESGVGLVQAGGSLRLSCAASGRIFRWYPMGWYRQAPGKERELVASITWNGGSTYYADSVKGRFTISRDNAKNTVYLQMKSLKPEDTAVYYCAVPFYRGPEMGYWGQGTQVTVSS | high polyreactivity |
| QVQLVESGVGLVQAGGSLRLSCAASGRIFTPYAMGWYRQAPGKERELVAAITGSGGITYYADSVKGRFTISRDNSKNTVYLQMNSLKPEDTAVYYCNADTPVWDGHAYPGDYWGQGTQVTVSS | low polyreactivity |
| QVQLVESGVGLVQAGGSLRLSCAASGRNFGTNAIGWYRPAPGKERELVAAISSSGGSTYYADSVKGRFTISRDNAKNTVYLQMNSLKPEDTAVYYCAKGWHRGVGFGYWGQGTEVTVSS | high polyreactivity |
| QVQLVESGVGLVQAGGSLRLSCAASGRTIPIYAMGWYRQAPGKERELVASITRSGGSTYYADSVKGRFTISRDNAKYTVYLQMNSLKPEDTAVYYCAAAANSYSVYSGKFYYWGQGTQVTVSS | high polyreactivity |
| QVQLVESGVGLVQAGGSLRLSCAASGRTLGVYTMGWYRQAPGKERELVAAITTGGSTKYADSVKGRFTISRDNAKNTVYLQMNSLKPEDTAVYYCATDLVFDKRYWYDYWGQGTQVTVSS | low polyreactivity |
| QVQLVESGVGLVQAGGSLRLSCAASGSIFESYAMGWYRQAPGKVRELVADITYDGGITYYADSVKGRFTISRDNAKNTVYLQMNSLKPEDTAVYYCAKQYYFTFWGQGTQVTVSS | low polyreactivity |
| QVQLVESGVGLVQAGGSLRLSCAASGSIFGYNDMGWYRQAPGKERELVAVITSGGSTNYADSVKGRFTISRDNAKNTVYLQMNSLKPEDTAVYYCNAEGVFGDGRSGFYWYDYWGQGTQVTVSS | low polyreactivity |
| QVQLVESGVGLVQAGGSLRLSCAASGSIFLHNAMGWYRQAPGKERELVAGITGSGGSTYYADSVKGRFTISRDNAKNTVYLQMNSLKPEDTAVYYCAAERYGYERYYWGQGTQVTVSS | high polyreactivity |

| Sequence | polyreactivity (PSR sort gate) |
| --- | --- |
| QVQLVESGVGLVQAGGSLRLSCAASGSIFPPYAMGWYRQAPGKERELVAAITSGGRTNYADSVKGRFTISRDNAKNTVYLQMNSLKPEDTEVYYCAQTGSYAKIRPNNDYWGQGTQVTVSS | low polyreactivity |
| QVQLVESGVGLVQAGGSLRLSCAASGSIFYPYAMGWYRQAPGKERELVAAISSGGRTYDADSVKGRFTISRDNAKNTVYLQMNSLKPEDTAVSYCAARPKAYGRPPGYYWGQGTQVTVSS | high polyreactivity |
| QVQLVESGVGLVQAGGSLRLSCAASGSIFYQNAMGWYRQAPGKEREFVAAITWIGGSTYYADSVKGRFTISRDNAKNTVYLQMNSLKPEDTAVYYCARRLLRGSDWGQGTQVTVSS | high polyreactivity |
| QVQLVESGVGLVQAGGSLRLSCAASGSTFDANAMGWYIQAPGKERELVAAITSNGGSTYYADSVKGRFTISRDNAKNTVYLQMNSLKPEDTAVYYCASEQHTVQDYDYWGQGTQVTVSS | low polyreactivity |
| QVQLVESGVGLVQAGGSLRLSCAASGSTFGGNAMGWYRQAPGKEREKVADITFSGGSTSYADSVKGRFTISRDNAKKTVYLQMNSLKPEDTAVYYCNRDYPEIIVAGLDYWGQGSQVTVSS | low polyreactivity |
| QVQLVESGVGLVQAGGSLRLSCAASGSTFPKNVMGWYRQAPGKERELVAAINYSGTSTYYADSVKGRFTISRDNAKNTVYLQMNSLKPEDTAVYYCAARFPLVRYNYWGQGTQVTVSS | high polyreactivity |
| QVQLVESGVGLVQAGGSLRLSCAASGSTFQPYSMGRYRQAPGKERELVAAIRSLAGSTYYADSVKGRFTISRDNAKNTVYLQMNSLKPEDTAVYYCAAGYNPYVGLGWYPIYDFWGQGTQVTVSS | low polyreactivity |
| QVQLVESGVGLVQAGGSLRLSCAASGSTFSAYTMGWYRQAPGKERELVAAIRFDGGRTYYADSVKGRFTISRDNAKNTVYLQMNSLKPEDTAVYYCRAWQSYSYDYSGQGTQVTVSS | high polyreactivity |
| QVQLVESGVGLVQAGGSLRLSCAASGSTFSNNAMGWYIQAPGKERELVAVITGDGGSTYYADSVKGRFTISRDIAKNTVYLQTNSLKPEDTAVYSCNARSSRYSRFRQRFGYWGQVTQVTVSS | low polyreactivity |
| QVQLVESGVGLVQAGGSLRLSCAASGVTFYQYAMGWYRQAPGKERELVAAITRRGGSTSYADSVKGRFTISRDNAKNHVFLKMTRLIPEDTSVYYCNALYGSAFATQVESDYWGQGTQVNVSS | high polyreactivity |
| QVQLVESGVGLVQAGGSLRLSCAAYGRTFYYYAMGWYRQAPGKERELVAGITWSGGSTKYADSVKGRFTISRDNAKNTVYLQMNSLKPEDTAVYYCNARPPRWVRSMDYWGQGTQVTVSS | high polyreactivity |
| QVQLVESGVGLVQAGGSLRLSCADSGFTFFHYARGWYIQAPGKERELVAAIDYSAGSTYYADSVKGRFTISRDNAKNTVYLQMNSLKPEDTAVYYCAADARTSRGRRYYYWGQGTQVTVSS | low polyreactivity |
| QVQLVESGVGLVQAGGSLRLSCAPSGRTFFWYAMGWYRPAPGKERELVAAIRGAGRTNYADSVKGRFTISRDNAKYTVYLHMNSLKPEDTAVYYCAAQHYPWRRYDYWGLGTQVTVSS | high polyreactivity |
| QVQLVESGVGLVQAGGSLRLSCASSGRIFDLNSMGWYIQAPGKERELVAVIDRDGSTYYADSVKGRFTISRDNAKNTVYLQMNSLKPDDTAVYYCNKYWYSRHVRYWAYYAEQRYDYCGQGTQVTVSS | low polyreactivity |
| QVQLVESGVGLVQAGGSLRLSCASSGSIFTPYAMGCYRQAPGKESELVAAISRSGGSTYYADSVKGRFTISRDNAKNTVFLQMNRLKPEDTAVYYCAVVVYDIYGYESDYWGEGTQVTVSS | low polyreactivity |
| QVQLVESGVGLVQAGGSLRLSSAASGSTFGYYTMGWYRQAPGKERELVASISWSGASTHYADSVKGRFTISRDNAKNTVYLQMNSLKPDDTEVYYCAADWQQQPGTNSFDYWGQGTQVTVSS | low polyreactivity |
| QVQLVESGVGLVQAGGSLRLSWTASGRIFSWYAMGWYRQAPGKERELVADISWGTGSTYYADTVKGRFTISRDNAKHTVDLQMNSLKPEDTAVYYCAADPGYYYEYRRFYYWGQGTQVTVSS | high polyreactivity |
| QVQLVESGVGLVQAGGSLRLTCAASGRIFVTNAKGWYRQAPGKERELVAAITRGVNTNYADSVKGRFTISRDNAKNTVYLQMNSLKPEDTAVYYCAADSSYYYVYGYFPGYYYWGQGTQVTVSS | low polyreactivity |
| QVQLVESGVGLVQAGGSLRVSCAASGRTFRYYAMGWYREAPGKERELVAAISSGTRTNYADSVTGRFTISRDNAKNTVYLQMNSLKPEDTAVYYCNAVTRRSAQGGHDYWGQGTQVTVSS | high polyreactivity |
| QVQLVESGVGLVQAGGSLSLSCAASGRTFYVNAMGWYRQAPGKERELVARITSGGSTYYGDSVKGRFTISRDNAKNTVYLQMNSLKPEDTAVYYCAKKYIGYQEGIHSTRRYDYWGQGTQVTVSS | low polyreactivity |
